Target: T1, MPZ-GFP (human), P25189
T1 chain: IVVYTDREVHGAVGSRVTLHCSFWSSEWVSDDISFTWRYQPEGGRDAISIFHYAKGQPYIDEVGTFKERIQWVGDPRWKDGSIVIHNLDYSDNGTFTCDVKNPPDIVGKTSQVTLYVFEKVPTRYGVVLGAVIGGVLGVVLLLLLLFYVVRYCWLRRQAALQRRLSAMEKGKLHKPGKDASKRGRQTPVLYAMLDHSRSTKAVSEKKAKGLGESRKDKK
Assay: FRET or BRET
Conditions: remark: other sources report otherwise

B1: MPZ-mCherry, P25189 30-248 (natural protein)
chain: T1 chain
Question: Which FRET efficiency does the source give for B1 here?
Answer: Its FRET efficiency is 5.3%.

From article PMC11700639
